{"source": "patent US20110008312A1", "target": "fibrillin-1 (human) (UniProt P35555)", "sequence (P35555 45-2731 limits assumed)": "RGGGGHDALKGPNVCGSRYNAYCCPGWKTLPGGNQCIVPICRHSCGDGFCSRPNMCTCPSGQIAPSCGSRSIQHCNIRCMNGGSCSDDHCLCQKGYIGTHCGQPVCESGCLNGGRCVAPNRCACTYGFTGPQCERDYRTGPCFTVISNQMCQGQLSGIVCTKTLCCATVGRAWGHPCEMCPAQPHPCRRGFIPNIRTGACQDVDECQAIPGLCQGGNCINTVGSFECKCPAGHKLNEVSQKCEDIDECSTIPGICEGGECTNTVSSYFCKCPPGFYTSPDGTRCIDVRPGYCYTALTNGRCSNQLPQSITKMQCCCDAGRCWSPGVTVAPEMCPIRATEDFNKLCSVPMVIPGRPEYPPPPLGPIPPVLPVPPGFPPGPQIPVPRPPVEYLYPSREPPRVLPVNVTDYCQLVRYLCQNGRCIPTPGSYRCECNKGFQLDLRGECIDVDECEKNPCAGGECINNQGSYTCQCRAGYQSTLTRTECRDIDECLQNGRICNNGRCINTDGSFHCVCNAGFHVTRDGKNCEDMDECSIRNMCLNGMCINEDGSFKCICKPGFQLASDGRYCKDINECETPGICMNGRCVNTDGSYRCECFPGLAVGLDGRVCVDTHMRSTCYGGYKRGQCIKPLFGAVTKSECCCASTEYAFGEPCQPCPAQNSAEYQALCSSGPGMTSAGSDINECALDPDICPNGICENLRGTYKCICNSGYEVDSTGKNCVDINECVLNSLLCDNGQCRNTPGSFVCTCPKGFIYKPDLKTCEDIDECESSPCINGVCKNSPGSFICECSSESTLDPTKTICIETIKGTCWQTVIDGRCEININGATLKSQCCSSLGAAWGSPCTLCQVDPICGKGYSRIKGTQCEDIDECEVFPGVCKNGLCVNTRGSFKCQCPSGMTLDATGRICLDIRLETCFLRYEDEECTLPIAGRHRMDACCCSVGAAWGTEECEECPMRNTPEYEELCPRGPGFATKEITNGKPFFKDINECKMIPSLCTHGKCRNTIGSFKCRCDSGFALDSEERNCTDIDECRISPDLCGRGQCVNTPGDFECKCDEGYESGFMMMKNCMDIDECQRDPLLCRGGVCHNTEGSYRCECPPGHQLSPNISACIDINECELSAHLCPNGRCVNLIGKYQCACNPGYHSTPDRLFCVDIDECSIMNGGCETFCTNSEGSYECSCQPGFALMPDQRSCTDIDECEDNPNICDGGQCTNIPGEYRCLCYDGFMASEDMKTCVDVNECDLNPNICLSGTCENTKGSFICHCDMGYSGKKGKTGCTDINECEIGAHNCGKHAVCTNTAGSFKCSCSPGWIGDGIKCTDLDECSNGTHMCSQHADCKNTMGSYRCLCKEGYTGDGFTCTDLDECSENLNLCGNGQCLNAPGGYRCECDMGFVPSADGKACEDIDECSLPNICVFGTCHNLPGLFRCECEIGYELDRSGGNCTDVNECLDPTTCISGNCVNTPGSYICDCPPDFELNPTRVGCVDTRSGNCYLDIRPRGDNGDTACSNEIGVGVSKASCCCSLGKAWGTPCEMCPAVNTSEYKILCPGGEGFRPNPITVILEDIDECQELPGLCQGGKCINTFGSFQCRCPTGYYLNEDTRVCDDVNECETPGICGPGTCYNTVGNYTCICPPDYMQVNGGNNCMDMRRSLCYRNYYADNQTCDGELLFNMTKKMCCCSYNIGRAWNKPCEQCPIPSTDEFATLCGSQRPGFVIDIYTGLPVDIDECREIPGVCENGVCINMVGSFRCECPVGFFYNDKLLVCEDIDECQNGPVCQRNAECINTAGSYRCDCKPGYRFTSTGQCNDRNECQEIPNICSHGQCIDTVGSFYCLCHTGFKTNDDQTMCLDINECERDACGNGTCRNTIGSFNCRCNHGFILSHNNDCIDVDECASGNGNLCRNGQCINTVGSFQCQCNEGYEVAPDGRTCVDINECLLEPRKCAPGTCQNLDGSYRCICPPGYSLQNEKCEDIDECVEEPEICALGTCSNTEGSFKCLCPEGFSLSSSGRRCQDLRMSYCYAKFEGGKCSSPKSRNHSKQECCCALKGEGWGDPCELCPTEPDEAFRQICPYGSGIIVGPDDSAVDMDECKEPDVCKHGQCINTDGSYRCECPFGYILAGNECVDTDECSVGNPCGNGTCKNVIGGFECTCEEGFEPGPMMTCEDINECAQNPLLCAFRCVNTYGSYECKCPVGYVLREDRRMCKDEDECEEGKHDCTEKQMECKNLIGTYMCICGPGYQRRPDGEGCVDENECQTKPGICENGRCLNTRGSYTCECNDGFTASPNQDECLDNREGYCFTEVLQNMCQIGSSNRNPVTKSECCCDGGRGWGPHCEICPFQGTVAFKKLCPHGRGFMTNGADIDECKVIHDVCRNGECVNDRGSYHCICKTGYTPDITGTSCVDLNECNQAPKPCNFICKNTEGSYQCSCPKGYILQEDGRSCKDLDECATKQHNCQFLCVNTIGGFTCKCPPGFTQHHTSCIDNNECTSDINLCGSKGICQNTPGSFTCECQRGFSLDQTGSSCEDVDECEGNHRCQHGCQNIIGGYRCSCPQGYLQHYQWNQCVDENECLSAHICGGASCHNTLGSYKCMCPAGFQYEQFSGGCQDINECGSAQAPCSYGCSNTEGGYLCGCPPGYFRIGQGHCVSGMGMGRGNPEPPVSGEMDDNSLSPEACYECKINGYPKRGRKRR", "test": "cell-based or functional assay"}
{"substance": "elastin (from UniProt P15502 27-786)", "values": [{"measurement": "amount of elastin deposition to the extracellular matrix (% vs CS-free), keloid cells, CS-A added", "result": 87, "unit": "%"}, {"measurement": "amount of elastin deposition to the extracellular matrix (% vs CS-free), keloid cells, CS-A and CS-B added", "result": 66.3, "unit": "%"}, {"measurement": "amount of elastin deposition to the extracellular matrix (% vs CS-free), keloid cells, CS-A and CS-C added", "result": 67.4, "unit": "%"}, {"measurement": "amount of elastin deposition to the extracellular matrix (% vs CS-free), keloid cells, CS-A, CS-B and CS-C added", "result": 37.6, "unit": "%"}, {"measurement": "amount of elastin deposition to the extracellular matrix (% vs CS-free), keloid cells, CS-B added", "result": 95.9, "unit": "%"}, {"measurement": "amount of elastin deposition to the extracellular matrix (% vs CS-free), keloid cells, CS-B and CS-C added", "result": 91, "unit": "%"}, {"measurement": "amount of elastin deposition to the extracellular matrix (% vs CS-free), keloid cells, CS-C added", "result": 86.7, "unit": "%"}, {"measurement": "amount of elastin deposition to the extracellular matrix (% vs CS-free), keloid cells, CS-free", "result": 100, "unit": "%"}]}
